From publication PMC10757926, “Two birds with one stone: human SIRPα nanobodies for functional modulation and in vivo imaging of myeloid cells” (Frontiers in Immunology, 2023)
Numbering of substitutions follows the chain as printed. In names and notes the source's numbering stands.

B1: hSIRPα-S36 Nb (VHH)
VHH: EVQLVESGGGLVQPGGSLRLSCAASGFTLDYYAIGWFRQVPGKEREGVSCISSDGGGNTYYADSVKGRFTISRDNAKNTVYLQMNSLKPEDSAVYSCAAGPTYYSGSYCRDPHSDYDYWGQGTQVTVSS
notes: selected against the entire extracellular portion of hSIRPα; also called Nb S36; original S36 Nb; source: E. coli XL-1, purified (IMAC, SEC); not shown: His tag (from the IMAC purification)
B2: ^64Cu-hSIRPα-S36K>R Nb (VHH)
VHH: B1 VHH with K43R, K66R, K77R, K88R
notes: as the VHH of m15 (S36 with all four lysine residues replaced by arginine); also called ^64Cu-labeled hSIRPα-S36K>R Nb; source: E. coli, purified; chelator conjugated and radiolabeled with ^64Cu

What was measured:
[1] = target: T1, hSIRPγ displayed on U2OS cells (Homo sapiens, UniProt Q9P1W8); assay: immunostaining of cells or tissue; live-cell immunofluorescence on U2OS cells expressing the target; unlabeled Nbs (1 nM to 100 nM) with Cy5-labeled anti-VHH, 1 h at 37°C; conditions: one partner purified
T1 construct: signal-regulatory protein γ (SIRPγ), human; also called hSIRPy; source: U2OS, transiently expressing, on live cells

[2] = target: T2, full-length hSIRPα on U2OS cells (Homo sapiens, UniProt P78324); assay: as above; conditions: one partner purified
T2 construct: signal-regulatory protein α (SIRPα), human, full-length, co-expressed with IRES-derived GFP; also called U2OS-hSIRPα; source: U2OS, stably expressing, on live cells

[3] = target: T3, murine SIRPα displayed on U2OS cells (Mus musculus, UniProt P97797); assay: as above; conditions: one partner purified
T3 construct: signal-regulatory protein α (SIRPα), mouse; also called mouse SIRPα; source: U2OS, transiently expressing, on live cells

[4] = target: T4, hSIRPα domain 3 displayed on U2OS cells (Homo sapiens, UniProt P78324); assay: as above; conditions: one partner purified
T4 construct: signal-regulatory protein α (SIRPα), human, domain 3; also called hSIRPαD3; D3; source: U2OS, transiently expressing, on live cells

[5] = target: T5, hSIRPα domain 2 displayed on U2OS cells (Homo sapiens, UniProt P78324); assay: as above; conditions: one partner purified
T5 construct: signal-regulatory protein α (SIRPα), human, domain 2; also called hSIRPαD2; D2; source: U2OS, transiently expressing, on live cells

[6] = target: T6, hSIRPα-V1 displayed on U2OS cells (Homo sapiens, allele V1, UniProt P78324); assay: as above; conditions: one partner purified
T6 construct: signal-regulatory protein α (SIRPα), human, allelic variant V1; also called hSIRPα variant V1; source: U2OS, transiently expressing, on live cells

[7] = target: T7, hSIRPβ1 displayed on U2OS cells (Homo sapiens, UniProt O00241); assay: as above; conditions: one partner purified
T7 construct: signal-regulatory protein β1 (SIRPβ1), human; source: U2OS, transiently expressing, on live cells

[8] = target: T8, biotinylated recombinant hSIRPα (extracellular portion) (Homo sapiens, UniProt P78324, biotin (Sulfo-NHS-LC-LC-Biotin)); assay: BLI; Octet RED96e; biotinylated hSIRPα (5 µg/mL) immobilised on streptavidin biosensors; Nbs 0.625 nM to 320 nM in Octet buffer (PBS, 0.1% BSA, 0.02% Tween-20); association 240 s, dissociation 720 s; 1:1 model, global fit; conditions: both partners purified
T8 construct: signal-regulatory protein α (SIRPα), human, recombinant extracellular portion; also called biotinylated hSIRPα; signal-regulatory protein α; source: bought: Acrobiosystems

[9] = target: T9, recombinant hSIRPα (human, UniProt P78324); assay: HDX-MS; hSIRPα with Nb S8, S33 or S36; methods not in the text shown; conditions: both partners purified
T9 construct: signal-regulatory protein α (SIRPα), human, recombinant extracellular portion; source: bought: Acrobiosystems

[10] = target: T10, hSIRPα on HT1080 hSIRPα knock-in cells (Homo sapiens, UniProt P78324); assay: radioligand binding; antigen excess binding assay: 1 ng (2 MBq/µg) of ^64Cu-hSIRPα-S36K>R Nb on an increasing number of HT1080-hSIRPα cells, 1 h at 37°C; cell-bound radioactivity counted; conditions: one partner purified
T10 construct: signal-regulatory protein α (SIRPα), human; source: HT1080 hSIRPα knock-in (KI) cells, on cells
T10 sequence (P78324 31-504): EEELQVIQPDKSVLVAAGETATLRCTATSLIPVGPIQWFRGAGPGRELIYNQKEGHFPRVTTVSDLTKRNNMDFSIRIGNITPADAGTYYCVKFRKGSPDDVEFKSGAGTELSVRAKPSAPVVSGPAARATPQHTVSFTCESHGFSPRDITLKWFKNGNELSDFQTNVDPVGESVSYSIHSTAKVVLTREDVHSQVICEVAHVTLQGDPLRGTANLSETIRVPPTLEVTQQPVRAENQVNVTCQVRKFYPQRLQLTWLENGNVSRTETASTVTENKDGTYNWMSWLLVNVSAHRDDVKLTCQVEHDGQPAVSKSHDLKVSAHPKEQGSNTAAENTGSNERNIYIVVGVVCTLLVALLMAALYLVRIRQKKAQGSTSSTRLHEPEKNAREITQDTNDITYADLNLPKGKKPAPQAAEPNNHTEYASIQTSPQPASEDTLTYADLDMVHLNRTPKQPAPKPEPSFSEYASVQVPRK

T9 sequence (P78324 31-373): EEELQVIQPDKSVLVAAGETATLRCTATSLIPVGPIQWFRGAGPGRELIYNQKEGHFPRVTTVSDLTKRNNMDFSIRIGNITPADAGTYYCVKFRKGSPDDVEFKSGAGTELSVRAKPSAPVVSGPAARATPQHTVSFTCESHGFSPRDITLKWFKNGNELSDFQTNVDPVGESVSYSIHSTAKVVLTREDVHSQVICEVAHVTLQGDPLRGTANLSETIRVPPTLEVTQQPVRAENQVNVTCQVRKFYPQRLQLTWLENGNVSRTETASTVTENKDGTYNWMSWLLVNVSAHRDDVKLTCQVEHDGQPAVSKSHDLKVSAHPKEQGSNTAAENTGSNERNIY
T8 sequence (P78324 31-373): as above
T3 sequence (P97797 32-513): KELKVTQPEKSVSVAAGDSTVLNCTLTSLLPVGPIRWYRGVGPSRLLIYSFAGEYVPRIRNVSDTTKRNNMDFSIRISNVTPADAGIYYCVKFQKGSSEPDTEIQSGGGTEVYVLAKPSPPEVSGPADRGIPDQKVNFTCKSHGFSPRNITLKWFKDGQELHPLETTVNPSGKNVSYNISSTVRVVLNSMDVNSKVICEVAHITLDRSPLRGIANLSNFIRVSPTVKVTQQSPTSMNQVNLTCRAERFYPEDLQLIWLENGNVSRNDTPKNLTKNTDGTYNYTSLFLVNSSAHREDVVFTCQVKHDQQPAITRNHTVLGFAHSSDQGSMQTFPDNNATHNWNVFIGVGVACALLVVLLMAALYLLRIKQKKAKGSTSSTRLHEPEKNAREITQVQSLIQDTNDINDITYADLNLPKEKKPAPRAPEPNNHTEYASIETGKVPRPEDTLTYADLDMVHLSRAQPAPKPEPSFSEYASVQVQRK
T2 sequence (P78324 31-504): as the sequence (P78324 31-504) above
T6 sequence (P78324 31-504): as above
T4 sequence (P78324 whole entry, looked up, tested part not stated): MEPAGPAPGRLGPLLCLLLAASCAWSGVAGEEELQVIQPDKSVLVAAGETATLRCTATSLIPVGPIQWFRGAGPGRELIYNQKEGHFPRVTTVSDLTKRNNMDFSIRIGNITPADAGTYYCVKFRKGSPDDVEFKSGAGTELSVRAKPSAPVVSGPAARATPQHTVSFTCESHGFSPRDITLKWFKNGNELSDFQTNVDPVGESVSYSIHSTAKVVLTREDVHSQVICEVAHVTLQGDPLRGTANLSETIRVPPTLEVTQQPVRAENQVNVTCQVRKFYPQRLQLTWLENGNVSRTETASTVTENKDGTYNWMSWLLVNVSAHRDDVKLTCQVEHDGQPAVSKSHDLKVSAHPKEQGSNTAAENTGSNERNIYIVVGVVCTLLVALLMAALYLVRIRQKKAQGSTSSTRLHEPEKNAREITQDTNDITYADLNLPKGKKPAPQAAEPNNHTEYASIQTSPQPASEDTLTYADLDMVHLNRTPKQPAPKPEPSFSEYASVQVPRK
T5 sequence (P78324 whole entry, looked up, tested part not stated): as above
T7 sequence (O00241 30-398): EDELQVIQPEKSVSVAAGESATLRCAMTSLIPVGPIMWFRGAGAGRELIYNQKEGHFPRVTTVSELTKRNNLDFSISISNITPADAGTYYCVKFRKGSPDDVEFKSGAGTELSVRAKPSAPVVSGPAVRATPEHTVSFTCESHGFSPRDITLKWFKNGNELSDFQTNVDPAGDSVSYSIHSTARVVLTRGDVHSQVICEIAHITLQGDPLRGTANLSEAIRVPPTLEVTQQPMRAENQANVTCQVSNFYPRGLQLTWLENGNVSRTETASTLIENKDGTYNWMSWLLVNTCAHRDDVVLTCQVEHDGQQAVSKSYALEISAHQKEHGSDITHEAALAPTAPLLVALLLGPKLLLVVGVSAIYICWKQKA
T1 sequence (Q9P1W8 29-387): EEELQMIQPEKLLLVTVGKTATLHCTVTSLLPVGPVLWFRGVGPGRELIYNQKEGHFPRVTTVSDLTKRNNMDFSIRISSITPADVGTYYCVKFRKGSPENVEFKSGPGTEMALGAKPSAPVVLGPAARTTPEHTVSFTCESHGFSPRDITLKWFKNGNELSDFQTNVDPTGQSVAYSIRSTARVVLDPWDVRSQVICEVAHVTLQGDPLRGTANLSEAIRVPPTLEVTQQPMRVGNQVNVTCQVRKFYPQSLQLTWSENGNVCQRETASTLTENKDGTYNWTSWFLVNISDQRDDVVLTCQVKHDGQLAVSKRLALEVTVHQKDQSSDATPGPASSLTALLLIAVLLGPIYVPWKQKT

| binding result [1] | binding result [2] | binding result [3] | binding result [4] | binding result [5] | binding result [6] | binding result [7] | binding result [8] | binding result [9] | binding result [10] | Binder |
| --- | --- | --- | --- | --- | --- | --- | --- | --- | --- | --- |
| binds | binds | no binding (tested: Nbs 1 nM to 100 nM) | no binding (tested: Nbs 1 nM to 100 nM) | binds | binds | binds | binds | binds |  | B1 |
|  |  |  |  |  |  |  |  |  | binds | B2 |
